Reference: paper PMC2808332, “Expanding the Substantial Interactome of NEMO Using Protein Microarrays” (PLoS ONE, 2010)

target: T1, NEMO (NF-κB essential modulator), tag-free, biotinylated (human, UniProt Q9Y6K9 1-419, biotin (in vitro biotinylation kit, biotin:NEMO molar ratio 9:1)); assay: peptide or protein array; Invitrogen Protoarray v4.0, about 8,400 human proteins spotted on nitrocellulose-coated glass slides; 10 µg biotinylated tag-free NEMO in 120 µl probing buffer (PBS, 0.5 mM DTT, 5 mM MgCl2, 5% glycerol, 0.05% Triton X-100), 4°C, 1.5 h; bound NEMO detected with labelled streptavidin; hits Z-score > 3, hits of the biotin-GST control array subtracted; details: both partners purified
T1 construct: NEMO, NF-κB essential modulator, human, 48 kDa; also called biotinylated NEMO; biotin-NEMO; source: E. coli BL21(DE3), purified (glutathione sepharose), GST removed with thrombin, biotinylated in vitro

Binder	binding result
Hemoglobin, zeta (natural protein, human, UniProt P02008 1-142, looked up, Hemoglobin, zeta, human; also called HBZ; source: insect cell/baculovirus, purified, spotted (Invitrogen Protoarray v4.0)) MSLTKTERTIIVSMWAKISTQADTIGTETLERLFLSHPQTKTYFPHFDLHPGSAQLRAHGSKVVAAVGDAVKSIDDIGGALSKLSELHAYILRVDPVNFKLLSHCLLVTLAARFPADFTAEAHAAWDKFLSVVSSVLTEKYR	binds
Chromosome 19 open reading frame 12 (natural protein, human, UniProt Q9NSK7-4 1-141, looked up, Chromosome 19 open reading frame 12, human; also called C19ORF12; source: insect cell/baculovirus, purified, spotted (Invitrogen Protoarray v4.0)) MTIMVEDIMKLLCSLSGERKMKAAVKHSGKGALVTGAMAFVGGLVGGPPGLAVGGAVGGLLGAWMTSGQFKPVPQILMELPPAEQQRLFNEAAAIIRHLEWTDAVQLTALVMGSEALQQQLLAMLVNYVTKELRAEIQYDD	binds
Vesicle-associated membrane protein 3 (cellubrevin) (natural protein, human, UniProt Q15836 1-100, looked up, Vesicle-associated membrane protein 3 (cellubrevin), human; also called VAMP3; source: insect cell/baculovirus, purified, spotted (Invitrogen Protoarray v4.0)) MSTGPTAATGSNRRLQQTQNQVDEVVDIMRVNVDKVLERDQKLSELDDRADALQAGASQFETSAAKLKRKYWWKNCKMWAIGITVLVIFIIIIIVWVVSS	binds
